From FireProtDB (doi:10.1038/75151)

Conditions: Bacillus caldolyticus, pH 7, Thermal, CD, Sodium cacodylate-HCl 0.1 M, reversible: yes, whole UniProt chain shown

B1: Cold shock protein CspB wild type, P41016 (protein)
chain: MQRGKVKWFNNEKGYGFIEVEGGSDVFVHFTAIQGEGFKTLEEGQEVSFEIVQGNRGPQAANVVKL
**Q.** With B1 as the protein, how does the unfolding free energy (70 °C, NaCl 2 M) read?
**A.** 2.2 kcal/mol

**Q.** And the Tm?
**A.** 76.9 °C

**Q.** What about the “unfolding enthalpy (van 't Hoff)” value of the same protein?
**A.** 58.6 kcal/mol
